Results from IntAct's records for PubMed 22820947.

B1: ATP-dependent helicase SGS1 (Saccharomyces cerevisiae), P35187 (parent)
chain: MVTKPSHNLRREHKWLKETATLQEDKDFVFQAIQKHIANKRPKTNSPPTTPSKDECGPGTTNFITSIPASGPTNTATKQHEVMQTLSNDTEWLSYTATSNQYADVPMVDIPASTSVVSNPRTPNGSKTHNFNTFRPHMASSLVENDSSRNLGSRNNNKSVIDNSSIGKQLENDIKLEVIRLQGSLIMALKEQSKLLLQKCSIIESTSLSEDAKRLQLSRDIRPQLSNMSIRIDSLEKEIIKAKKDGMSKDQSKGRSQVSSQDDNIISSILPSPLEYNTSSRNSNLTSTTATTVTKALAITGAKQNITNNTGKNSNNDSNNDDLIQVLDDEDDIDCDPPVILKEGAPHSPAFPHLHMTSEEQDELTRRRNMRSREPVNYRIPDRDDPFDYVMGKSLRDDYPDVEREEDELTMEAEDDAHSSYMTTRDEEKEENELLNQSDFDFVVNDDLDPTQDTDYHDNMDVSANIQESSQEGDTRSTITLSQNKNVQVILSSPTAQSVPSNGQNQIGVEHIDLLEDDLEKDAILDDSMSFSFGRQHMPMSHSDLELIDSEKENEDFEEDNNNNGIEYLSDSDLERFDEERENRTQVADIQELDNDLKIITERKLTGDNEHPPPSWSPKIKREKSSVSQKDEEDDFDDDFSLSDIVSKSNLSSKTNGPTYPWSDEVLYRLHEVFKLPGFRPNQLEAVNATLQGKDVFVLMPTGGGKSLCYQLPAVVKSGKTHGTTIVISPLISLMQDQVEHLLNKNIKASMFSSRGTAEQRRQTFNLFINGLLDLVYISPEMISASEQCKRAISRLYADGKLARIVVDEAHCVSNWGHDFRPDYKELKFFKREYPDIPMIALTATASEQVRMDIIHNLELKEPVFLKQSFNRTNLYYEVNKKTKNTIFEICDAVKSRFKNQTGIIYCHSKKSCEQTSAQMQRNGIKCAYYHAGMEPDERLSVQKAWQADEIQVICATVAFGMGIDKPDVRFVYHFTVPRTLEGYYQETGRAGRDGNYSYCITYFSFRDIRTMQTMIQKDKNLDRENKEKHLNKLQQVMAYCDNVTDCRRKLVLSYFNEDFDSKLCHKNCDNCRNSANVINEERDVTEPAKKIVKLVESIQNERVTIIYCQDVFKGSRSSKIVQANHDTLEEHGIGKSMQKSEIERIFFHLITIRVLQEYSIMNNSGFASSYVKVGPNAKKLLTGKMEIKMQFTISAPNSRPSTSSSFQANEDNIPVIAQKSTTIGGNVAANPPRFISAKEHLRSYTYGGSTMGSSHPITLKNTSDLRSTQELNNLRMTYERLRELSLNLGNRMVPPVGNFMPDSILKKMAAILPMNDSAFATLGTVEDKYRRRFKYFKATIADLSKKRSSEDHEKYDTILNDEFVNRAAASSNGIAQSTGTKSKFFGANLNEAKENEQIINQIRQSQLPKNTTSSKSGTRSISKSSKKSANGRRGFRNYRGHYRGRK

Variants of: B1
Conditions: with rad53_yeast RAD53, P22216
Sequence of rad53_yeast RAD53, P22216 (P22216 whole entry): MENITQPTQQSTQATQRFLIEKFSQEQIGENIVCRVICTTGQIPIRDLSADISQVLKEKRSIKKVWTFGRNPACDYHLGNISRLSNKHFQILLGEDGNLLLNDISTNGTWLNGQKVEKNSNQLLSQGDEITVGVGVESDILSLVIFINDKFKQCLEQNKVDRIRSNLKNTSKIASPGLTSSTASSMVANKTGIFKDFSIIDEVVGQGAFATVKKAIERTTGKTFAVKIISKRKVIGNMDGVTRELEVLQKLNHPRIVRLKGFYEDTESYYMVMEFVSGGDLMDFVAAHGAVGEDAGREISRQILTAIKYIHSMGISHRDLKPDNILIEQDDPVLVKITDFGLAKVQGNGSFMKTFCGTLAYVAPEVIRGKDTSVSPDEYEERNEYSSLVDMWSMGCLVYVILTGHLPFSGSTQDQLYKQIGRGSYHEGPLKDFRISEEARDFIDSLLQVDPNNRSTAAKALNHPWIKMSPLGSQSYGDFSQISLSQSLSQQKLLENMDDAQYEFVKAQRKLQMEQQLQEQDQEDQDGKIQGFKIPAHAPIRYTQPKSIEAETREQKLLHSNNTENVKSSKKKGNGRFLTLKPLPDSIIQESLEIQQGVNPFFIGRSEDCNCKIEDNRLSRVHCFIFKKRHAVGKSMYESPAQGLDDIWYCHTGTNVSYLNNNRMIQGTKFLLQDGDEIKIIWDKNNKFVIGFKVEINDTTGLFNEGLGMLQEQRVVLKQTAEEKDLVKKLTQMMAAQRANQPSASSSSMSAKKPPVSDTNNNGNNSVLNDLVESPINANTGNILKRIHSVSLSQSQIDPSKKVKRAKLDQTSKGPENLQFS

Effect of a mutation on the interaction, decreasing interaction:
T585A
S470A
S482A
T451A
